Measurements as given in paper PMC4868954.

molecular target: complement component C3b (human) (UniProt P01024); experiment: SPR

Compared with “complement receptor 1 CR1 CCP15–17 (residues 942–1,136) (from UniProt P17927 942-1136) (domain or fragment)”, “decay-accelerating factor DAF CCP1–4 (domain or fragment)” is 3.2-fold higher in Kd: 1900 nM for the first, 6100 nM for the second.

Compared with factor H FH CCP1–4 (domain or fragment), “membrane-cofactor protein MCP CCP1–4 (residues 35–285), from E. coli (from UniProt P15529 35-285) (domain or fragment)” is 21-fold lower in Kd: 7200 nM for the first, 350 nM for the second. The second binds more tightly here.

Work on “smallpox inhibitor of complement enzymes, SPICE CCP1–4 (residues 19–263) (natural protein)” yielded a Kd of 1300 nM.
